According to patent publication US20140072613A1, “Compositions and Methods for Treating Cutaneous Scarring” (priority 2012, published 2014):

Experiments:
Assay in all cases: biochemical
Assay type in all cases: biochemical
266 human kinases [1] = target: T1, 266 human kinases (Homo sapiens, UniProt O14920); conditions: IKKβ(h); 100 μM
T1 sequence (O14920 1-756): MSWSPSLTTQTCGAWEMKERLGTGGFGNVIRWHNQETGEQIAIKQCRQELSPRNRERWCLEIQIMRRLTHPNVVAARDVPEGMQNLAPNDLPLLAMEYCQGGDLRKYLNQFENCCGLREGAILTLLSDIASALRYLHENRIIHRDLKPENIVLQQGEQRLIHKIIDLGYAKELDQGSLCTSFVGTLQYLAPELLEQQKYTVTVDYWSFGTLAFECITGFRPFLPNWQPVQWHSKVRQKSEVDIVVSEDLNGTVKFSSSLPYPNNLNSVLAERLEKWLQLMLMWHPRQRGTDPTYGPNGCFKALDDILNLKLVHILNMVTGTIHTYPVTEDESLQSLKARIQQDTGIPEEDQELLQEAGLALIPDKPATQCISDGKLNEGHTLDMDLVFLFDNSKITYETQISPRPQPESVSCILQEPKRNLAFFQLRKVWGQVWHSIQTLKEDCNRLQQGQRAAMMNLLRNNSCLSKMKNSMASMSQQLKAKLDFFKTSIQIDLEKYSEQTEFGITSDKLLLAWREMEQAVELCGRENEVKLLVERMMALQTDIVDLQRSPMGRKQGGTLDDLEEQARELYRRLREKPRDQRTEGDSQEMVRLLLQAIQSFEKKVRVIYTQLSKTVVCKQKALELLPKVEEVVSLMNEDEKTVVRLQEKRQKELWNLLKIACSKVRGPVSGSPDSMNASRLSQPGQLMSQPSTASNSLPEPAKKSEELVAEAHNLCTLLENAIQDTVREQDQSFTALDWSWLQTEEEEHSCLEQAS
How it was run: (§1)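 Read-out by scintillation counting of radiolabelled, positively charged substrate bound to negatively charged filter; activity normalised to 100% control. Phosphate transferred from radiolabelled ATP.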

266 human kinases [2] = target: T2, 266 human kinases (Homo sapiens, UniProt Q8IWQ3); conditions: BrSK2(h); 100 μM
T2 sequence (Q8IWQ3 1-736): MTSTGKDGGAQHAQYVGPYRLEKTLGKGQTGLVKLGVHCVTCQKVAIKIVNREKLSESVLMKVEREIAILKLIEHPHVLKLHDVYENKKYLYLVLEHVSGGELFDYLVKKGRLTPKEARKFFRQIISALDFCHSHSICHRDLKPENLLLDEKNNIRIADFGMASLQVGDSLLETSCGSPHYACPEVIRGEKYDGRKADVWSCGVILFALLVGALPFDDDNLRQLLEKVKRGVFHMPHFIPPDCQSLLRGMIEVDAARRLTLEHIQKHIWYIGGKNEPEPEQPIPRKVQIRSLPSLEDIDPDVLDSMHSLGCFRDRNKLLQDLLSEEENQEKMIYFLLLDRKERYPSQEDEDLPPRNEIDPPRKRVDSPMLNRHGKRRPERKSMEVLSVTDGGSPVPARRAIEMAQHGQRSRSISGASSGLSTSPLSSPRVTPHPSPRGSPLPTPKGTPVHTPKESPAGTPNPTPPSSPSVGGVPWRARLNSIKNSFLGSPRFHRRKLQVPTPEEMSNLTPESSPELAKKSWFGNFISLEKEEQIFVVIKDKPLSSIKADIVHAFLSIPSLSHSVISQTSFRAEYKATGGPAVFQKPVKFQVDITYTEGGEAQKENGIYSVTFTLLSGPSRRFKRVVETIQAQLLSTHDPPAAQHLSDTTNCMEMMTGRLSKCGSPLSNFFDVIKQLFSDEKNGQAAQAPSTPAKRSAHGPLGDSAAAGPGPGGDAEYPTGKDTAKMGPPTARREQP
How it was run: as §1

266 human kinases [3] = target: T3, 266 human kinases (Homo sapiens, UniProt Q9H2K8); conditions: TAO3(h); 100 μM
T3 sequence (Q9H2K8 1-898): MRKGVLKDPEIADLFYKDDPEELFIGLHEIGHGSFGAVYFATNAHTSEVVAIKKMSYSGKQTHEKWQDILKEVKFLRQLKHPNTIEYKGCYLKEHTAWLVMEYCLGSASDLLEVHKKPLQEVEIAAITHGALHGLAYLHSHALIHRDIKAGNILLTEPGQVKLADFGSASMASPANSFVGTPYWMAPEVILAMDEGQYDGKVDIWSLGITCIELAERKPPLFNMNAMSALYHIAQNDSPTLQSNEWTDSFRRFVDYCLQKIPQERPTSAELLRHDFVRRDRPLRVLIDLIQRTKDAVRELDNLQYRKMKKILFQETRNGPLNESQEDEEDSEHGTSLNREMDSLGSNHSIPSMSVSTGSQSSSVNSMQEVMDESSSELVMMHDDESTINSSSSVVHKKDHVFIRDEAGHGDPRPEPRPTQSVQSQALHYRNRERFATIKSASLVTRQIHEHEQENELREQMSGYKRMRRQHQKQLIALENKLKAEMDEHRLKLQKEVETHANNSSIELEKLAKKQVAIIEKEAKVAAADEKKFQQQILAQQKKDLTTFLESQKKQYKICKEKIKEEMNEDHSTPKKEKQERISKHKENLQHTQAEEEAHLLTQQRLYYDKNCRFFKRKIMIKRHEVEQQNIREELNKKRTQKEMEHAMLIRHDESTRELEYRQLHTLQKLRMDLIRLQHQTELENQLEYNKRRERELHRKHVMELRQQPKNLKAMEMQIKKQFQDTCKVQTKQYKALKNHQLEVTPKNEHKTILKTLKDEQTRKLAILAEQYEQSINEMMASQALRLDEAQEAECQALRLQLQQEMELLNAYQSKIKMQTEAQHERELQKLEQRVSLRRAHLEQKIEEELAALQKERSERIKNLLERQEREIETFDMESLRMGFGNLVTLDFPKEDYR
How it was run: as §1

266 human kinases [4] = target: 266 human kinases (Homo sapiens, UniProt Q86Z02); conditions: HIPK1(h); 100 μM
266 human kinases (Homo sapiens, UniProt Q86Z02), sequence (Q86Z02 whole entry): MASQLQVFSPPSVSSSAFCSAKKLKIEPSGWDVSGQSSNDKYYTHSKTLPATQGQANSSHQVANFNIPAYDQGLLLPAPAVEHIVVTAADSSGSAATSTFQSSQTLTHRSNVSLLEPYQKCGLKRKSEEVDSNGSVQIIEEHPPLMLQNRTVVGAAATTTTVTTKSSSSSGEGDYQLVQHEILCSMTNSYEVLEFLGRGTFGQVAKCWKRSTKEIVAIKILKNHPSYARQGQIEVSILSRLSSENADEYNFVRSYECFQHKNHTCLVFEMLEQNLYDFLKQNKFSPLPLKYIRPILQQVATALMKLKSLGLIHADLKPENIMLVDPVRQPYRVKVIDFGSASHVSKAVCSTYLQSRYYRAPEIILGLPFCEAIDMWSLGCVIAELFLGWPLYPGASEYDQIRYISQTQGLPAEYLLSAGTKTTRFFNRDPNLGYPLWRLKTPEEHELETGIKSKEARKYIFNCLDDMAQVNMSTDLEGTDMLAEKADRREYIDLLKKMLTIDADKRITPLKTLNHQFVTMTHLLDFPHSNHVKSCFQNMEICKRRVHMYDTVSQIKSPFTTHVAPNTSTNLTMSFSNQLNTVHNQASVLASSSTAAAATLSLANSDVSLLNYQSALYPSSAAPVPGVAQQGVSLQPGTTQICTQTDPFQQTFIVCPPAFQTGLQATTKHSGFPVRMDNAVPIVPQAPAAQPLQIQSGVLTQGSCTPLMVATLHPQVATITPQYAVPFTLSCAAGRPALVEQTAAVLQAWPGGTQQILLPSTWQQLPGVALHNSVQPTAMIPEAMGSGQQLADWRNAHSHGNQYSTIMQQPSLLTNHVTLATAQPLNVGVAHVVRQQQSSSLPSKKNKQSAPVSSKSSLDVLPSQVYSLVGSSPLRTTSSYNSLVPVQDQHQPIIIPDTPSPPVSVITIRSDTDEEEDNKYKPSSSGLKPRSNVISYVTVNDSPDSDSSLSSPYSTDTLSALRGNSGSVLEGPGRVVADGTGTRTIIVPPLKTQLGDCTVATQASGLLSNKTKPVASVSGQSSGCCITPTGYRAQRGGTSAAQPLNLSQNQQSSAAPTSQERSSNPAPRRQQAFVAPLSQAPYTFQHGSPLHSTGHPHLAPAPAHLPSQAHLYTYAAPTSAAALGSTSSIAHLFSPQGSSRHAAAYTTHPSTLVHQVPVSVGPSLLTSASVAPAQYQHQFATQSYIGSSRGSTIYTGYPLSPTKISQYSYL
How it was run: as §1

266 human kinases [5] = target: 266 human kinases (Homo sapiens, UniProt Q9NYY3); conditions: Snk(h); 100 μM
266 human kinases (Homo sapiens, UniProt Q9NYY3), sequence (Q9NYY3 whole entry): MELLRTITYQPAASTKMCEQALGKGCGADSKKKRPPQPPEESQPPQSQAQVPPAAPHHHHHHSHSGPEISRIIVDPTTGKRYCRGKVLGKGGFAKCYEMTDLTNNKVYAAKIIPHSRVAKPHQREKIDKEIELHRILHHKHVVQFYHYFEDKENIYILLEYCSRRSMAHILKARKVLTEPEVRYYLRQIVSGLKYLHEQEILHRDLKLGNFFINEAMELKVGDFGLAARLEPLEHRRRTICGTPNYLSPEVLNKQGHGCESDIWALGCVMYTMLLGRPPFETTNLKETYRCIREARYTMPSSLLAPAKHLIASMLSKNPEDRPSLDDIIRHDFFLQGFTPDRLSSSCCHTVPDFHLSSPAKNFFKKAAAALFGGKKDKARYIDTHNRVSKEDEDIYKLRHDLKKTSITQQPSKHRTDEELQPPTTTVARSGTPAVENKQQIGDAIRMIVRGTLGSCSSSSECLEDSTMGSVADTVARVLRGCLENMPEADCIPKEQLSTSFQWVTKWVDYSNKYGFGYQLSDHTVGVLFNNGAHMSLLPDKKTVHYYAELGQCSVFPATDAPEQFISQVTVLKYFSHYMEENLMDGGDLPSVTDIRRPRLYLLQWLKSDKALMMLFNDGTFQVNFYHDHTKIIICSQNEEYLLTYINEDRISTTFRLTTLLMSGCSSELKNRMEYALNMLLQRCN
How it was run: as §1

266 human kinases [6] = target: 266 human kinases (Homo sapiens, UniProt Q15349); conditions: Rsk3(h); 100 μM
266 human kinases (Homo sapiens, UniProt Q15349), sequence (Q15349 whole entry): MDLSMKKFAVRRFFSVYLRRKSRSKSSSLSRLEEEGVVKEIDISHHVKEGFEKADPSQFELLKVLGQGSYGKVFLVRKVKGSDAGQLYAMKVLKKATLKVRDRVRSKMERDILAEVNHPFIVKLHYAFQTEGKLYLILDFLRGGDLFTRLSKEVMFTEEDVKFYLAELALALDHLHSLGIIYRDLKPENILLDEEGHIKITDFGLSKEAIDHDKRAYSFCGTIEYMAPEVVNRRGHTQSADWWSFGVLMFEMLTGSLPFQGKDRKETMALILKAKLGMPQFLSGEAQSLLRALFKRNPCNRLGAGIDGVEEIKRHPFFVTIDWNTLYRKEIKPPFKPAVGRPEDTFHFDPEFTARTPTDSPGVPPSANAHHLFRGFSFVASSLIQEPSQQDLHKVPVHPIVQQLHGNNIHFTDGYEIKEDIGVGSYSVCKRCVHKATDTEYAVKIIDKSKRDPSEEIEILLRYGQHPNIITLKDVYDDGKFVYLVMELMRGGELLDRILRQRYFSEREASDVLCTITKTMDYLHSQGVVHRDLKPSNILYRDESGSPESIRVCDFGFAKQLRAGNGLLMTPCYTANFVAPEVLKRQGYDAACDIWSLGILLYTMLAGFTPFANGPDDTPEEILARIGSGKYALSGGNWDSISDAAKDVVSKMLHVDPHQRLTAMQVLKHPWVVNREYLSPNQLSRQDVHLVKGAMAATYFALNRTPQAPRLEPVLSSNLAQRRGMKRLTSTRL
How it was run: as §1

266 human kinases [7] = target: 266 human kinases (Homo sapiens, UniProt Q9P0L2); conditions: MARK1(h); 100 μM
266 human kinases (Homo sapiens, UniProt Q9P0L2), sequence (Q9P0L2 whole entry): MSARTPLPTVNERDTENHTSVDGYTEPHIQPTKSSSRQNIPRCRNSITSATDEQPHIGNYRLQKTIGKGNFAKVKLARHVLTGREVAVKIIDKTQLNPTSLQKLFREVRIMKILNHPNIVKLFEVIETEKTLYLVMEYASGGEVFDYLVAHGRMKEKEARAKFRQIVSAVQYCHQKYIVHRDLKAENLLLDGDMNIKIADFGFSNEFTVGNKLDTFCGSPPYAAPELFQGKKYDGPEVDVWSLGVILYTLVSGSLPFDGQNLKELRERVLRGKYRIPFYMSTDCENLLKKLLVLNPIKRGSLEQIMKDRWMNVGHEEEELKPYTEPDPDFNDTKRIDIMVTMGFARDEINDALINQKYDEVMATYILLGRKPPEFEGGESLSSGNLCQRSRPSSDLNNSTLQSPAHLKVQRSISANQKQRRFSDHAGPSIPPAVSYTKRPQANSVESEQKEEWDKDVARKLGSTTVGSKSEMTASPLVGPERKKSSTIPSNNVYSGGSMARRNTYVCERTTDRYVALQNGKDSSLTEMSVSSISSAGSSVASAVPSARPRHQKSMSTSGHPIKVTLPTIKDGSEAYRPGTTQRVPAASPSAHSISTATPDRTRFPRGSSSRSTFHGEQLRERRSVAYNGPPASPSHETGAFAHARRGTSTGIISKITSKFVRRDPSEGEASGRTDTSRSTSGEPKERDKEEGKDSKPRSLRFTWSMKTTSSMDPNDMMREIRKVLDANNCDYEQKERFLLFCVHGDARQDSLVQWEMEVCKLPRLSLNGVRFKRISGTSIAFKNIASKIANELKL
How it was run: as §1

266 human kinases [8] = target: 266 human kinases (Homo sapiens, UniProt Q02763, R849W); conditions: Tie2(R849W)(h); 100 μM
266 human kinases (Homo sapiens, UniProt Q02763, R849W), sequence (Q02763 23-1124 R849W): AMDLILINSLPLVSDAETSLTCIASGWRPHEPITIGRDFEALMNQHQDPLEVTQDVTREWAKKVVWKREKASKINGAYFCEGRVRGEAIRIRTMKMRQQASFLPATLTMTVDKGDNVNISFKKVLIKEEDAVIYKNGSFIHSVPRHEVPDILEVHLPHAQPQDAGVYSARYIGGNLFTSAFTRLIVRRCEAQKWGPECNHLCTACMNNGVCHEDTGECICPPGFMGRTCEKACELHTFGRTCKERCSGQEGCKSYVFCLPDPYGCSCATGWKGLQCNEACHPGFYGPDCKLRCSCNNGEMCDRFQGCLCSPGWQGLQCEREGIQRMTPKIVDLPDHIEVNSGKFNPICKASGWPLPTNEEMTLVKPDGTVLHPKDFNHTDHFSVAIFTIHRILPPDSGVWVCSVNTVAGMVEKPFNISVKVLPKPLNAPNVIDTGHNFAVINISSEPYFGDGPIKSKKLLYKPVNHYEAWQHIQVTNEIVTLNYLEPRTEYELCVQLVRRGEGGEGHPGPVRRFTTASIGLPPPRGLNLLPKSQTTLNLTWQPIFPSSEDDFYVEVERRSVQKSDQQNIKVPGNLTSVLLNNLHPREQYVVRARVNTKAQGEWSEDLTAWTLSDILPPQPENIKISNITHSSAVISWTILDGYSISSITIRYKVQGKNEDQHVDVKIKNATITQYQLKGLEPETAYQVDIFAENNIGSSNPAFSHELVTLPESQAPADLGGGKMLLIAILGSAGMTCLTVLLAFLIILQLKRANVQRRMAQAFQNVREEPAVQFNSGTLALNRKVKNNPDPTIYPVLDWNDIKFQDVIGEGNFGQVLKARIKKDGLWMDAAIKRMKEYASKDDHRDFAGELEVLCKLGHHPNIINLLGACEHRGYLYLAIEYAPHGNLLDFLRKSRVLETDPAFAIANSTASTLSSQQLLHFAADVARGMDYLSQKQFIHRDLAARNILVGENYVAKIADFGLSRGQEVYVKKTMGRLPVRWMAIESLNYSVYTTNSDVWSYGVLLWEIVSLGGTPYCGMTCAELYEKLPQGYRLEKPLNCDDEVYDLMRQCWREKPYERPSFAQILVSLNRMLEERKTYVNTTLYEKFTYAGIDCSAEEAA
How it was run: as §1

| Sequence | % activity (266 human kinases [1]) | % activity (266 human kinases [2]) | % activity (266 human kinases [3]) | % activity (266 human kinases [4]) | % activity (266 human kinases [5]) | % activity (266 human kinases [6]) | % activity (266 human kinases [7]) | % activity (266 human kinases [8]) |
| --- | --- | --- | --- | --- | --- | --- | --- | --- |
| HRRIKAWLKKIKALARQLGVAA (mammal) [MMI-0500] | 71% | 84% | 12% | 47% | 122% | 23% | 110% |  |
| YARAAARQARAKALNRQLGVA (mammal) [MMI-0200] |  |  |  |  |  |  |  | 89% |
